Results taken from patent US20230220589A1.

Columns and labels:
[1] = molecular target: M44-modified Q NTAA target peptides; assay: encoding assay; P2 F
[2] = molecular target: M44-modified Y NTAA target peptides (M44-Y-P2-peptide); assay: encoding assay; P2 F;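 further: fraction of recording tags encoded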
[3] = molecular target: M44-modified L NTAA target peptides (M44-L-P2-peptide); assay: encoding assay; P2 F;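 further: fraction of recording tags encoded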
[4] = molecular target: M44-modified F NTAA target peptides (M44-F-P2-peptide); assay: encoding assay; P2 F;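 further: fraction of recording tags encoded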
[5] = molecular target: M44-modified E NTAA target peptides; assay: encoding assay; P2 F;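 further: fraction of recording tags encoded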
[6] = molecular target: M44-modified G NTAA target peptides (M44-G-P2-peptide); assay: encoding assay; P2 F;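 further: fraction of recording tags encoded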
[7] = molecular target: M44-modified P NTAA target peptides; assay: encoding assay; P2 F;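 further: fraction of recording tags encoded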
[8] = molecular target: M44-modified N NTAA target peptides; assay: encoding assay; P2 F
[9] = molecular target: M44-modified M NTAA target peptides; assay: encoding assay; P2 F
[10] = molecular target: M44-modified I NTAA target peptides (M44-I-P2-peptide); assay: encoding assay; P2 F
[11] = molecular target: M44-modified S NTAA target peptides; assay: encoding assay; P2 F
[12] = molecular target: M44-modified A NTAA target peptides (M44-A-P2-peptide); assay: encoding assay; P2 F
[13] = molecular target: M44-modified V NTAA target peptides; assay: encoding assay; P2 F;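 further: fraction of recording tags encoded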
[14] = molecular target: M44-modified W NTAA target peptides; assay: encoding assay; P2 F;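 further: fraction of recording tags encoded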
[15] = molecular target: M44-modified D NTAA target peptides; assay: encoding assay; P2 F;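 further: fraction of recording tags encoded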
[16] = molecular target: M44-modified H NTAA target peptides; assay: encoding assay; P2 F
[17] = molecular target: M44-modified T NTAA target peptides; assay: encoding assay; P2 F
[18] = molecular target: M44-modified Y NTAA target peptides (M44-Y-P2-peptide); assay: encoding assay; P2 Y;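 further: fraction of recording tags encoded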
[19] = molecular target: M44-modified L NTAA target peptides (M44-L-P2-peptide); assay: encoding assay; P2 Y;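 further: fraction of recording tags encoded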
[20] = molecular target: M44-modified F NTAA target peptides (M44-F-P2-peptide); assay: encoding assay; P2 Y;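 further: fraction of recording tags encoded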
[21] = molecular target: M44-modified E NTAA target peptides; assay: encoding assay; P2 Y;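 further: fraction of recording tags encoded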
[22] = molecular target: M44-modified G NTAA target peptides (M44-G-P2-peptide); assay: encoding assay; P2 Y;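 further: fraction of recording tags encoded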
[23] = molecular target: M44-modified P NTAA target peptides; assay: encoding assay; P2 Y;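 further: fraction of recording tags encoded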
[24] = molecular target: M44-modified N NTAA target peptides; assay: encoding assay; P2 Y
[25] = molecular target: M44-modified M NTAA target peptides; assay: encoding assay; P2 Y
[26] = molecular target: M44-modified I NTAA target peptides (M44-I-P2-peptide); assay: encoding assay; P2 Y
[27] = molecular target: M44-modified A NTAA target peptides (M44-A-P2-peptide); assay: encoding assay; P2 Y
[28] = molecular target: M44-modified W NTAA target peptides; assay: encoding assay; P2 Y;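 further: fraction of recording tags encoded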
[29] = molecular target: M44-modified D NTAA target peptides; assay: encoding assay; P2 Y;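 further: fraction of recording tags encoded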
[30] = molecular target: M44-modified H NTAA target peptides; assay: encoding assay; P2 Y
[31] = molecular target: M44-modified T NTAA target peptides; assay: encoding assay; P2 Y
[32] = molecular target: M44-modified Q NTAA target peptides; assay: encoding assay; P2 L
[33] = molecular target: M44-modified Y NTAA target peptides (M44-Y-P2-peptide); assay: encoding assay; P2 L;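 further: fraction of recording tags encoded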
[34] = molecular target: M44-modified L NTAA target peptides (M44-L-P2-peptide); assay: encoding assay; P2 L;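 further: fraction of recording tags encoded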
[35] = molecular target: M44-modified F NTAA target peptides (M44-F-P2-peptide); assay: encoding assay; P2 L;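 further: fraction of recording tags encoded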
[36] = molecular target: M44-modified E NTAA target peptides; assay: encoding assay; P2 L;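 further: fraction of recording tags encoded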
[37] = molecular target: M44-modified G NTAA target peptides (M44-G-P2-peptide); assay: encoding assay; P2 L;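 further: fraction of recording tags encoded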
[38] = molecular target: M44-modified P NTAA target peptides; assay: encoding assay; P2 L;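 further: fraction of recording tags encoded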
[39] = molecular target: M44-modified N NTAA target peptides; assay: encoding assay; P2 L
[40] = molecular target: M44-modified M NTAA target peptides; assay: encoding assay; P2 L
[41] = molecular target: M44-modified I NTAA target peptides (M44-I-P2-peptide); assay: encoding assay; P2 L
[42] = molecular target: M44-modified S NTAA target peptides; assay: encoding assay; P2 L
[43] = molecular target: M44-modified A NTAA target peptides (M44-A-P2-peptide); assay: encoding assay; P2 L
[44] = molecular target: M44-modified V NTAA target peptides; assay: encoding assay; P2 L;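 further: fraction of recording tags encoded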
[45] = molecular target: M44-modified W NTAA target peptides; assay: encoding assay; P2 L;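 further: fraction of recording tags encoded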
[46] = molecular target: M44-modified D NTAA target peptides; assay: encoding assay; P2 L;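 further: fraction of recording tags encoded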
[47] = molecular target: M44-modified H NTAA target peptides; assay: encoding assay; P2 L
[48] = molecular target: M44-modified T NTAA target peptides; assay: encoding assay; P2 L
[49] = molecular target: M44-modified L NTAA target peptides (M44-L-P2-peptide); assay: encoding assay; P2 A;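 further: fraction of recording tags encoded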
[50] = molecular target: M44-modified F NTAA target peptides (M44-F-P2-peptide); assay: encoding assay; P2 A;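 further: fraction of recording tags encoded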
[51] = molecular target: M44-modified E NTAA target peptides; assay: encoding assay; P2 Q;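 further: fraction of recording tags encoded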

Measured: encoding yield

B1: engineered M44-L binder (SEQ ID NO: 31) (designed binder, not shown: small tags and cut ends; large carriers)
chain: QDSTQNLIPAPPLISVPLQPGFWTERFQGRWFLVGFAGNAVQKERQSRLTMQSLILELQEDNSYNITAINVRGQGCRYIISTLVPSSRPGQFTLGNIHSYPQIQSLDVQVADTDYDQFAMVFLQGTSENKQYFEVALAGRTKGLSDELKERFVSFAKSLGLKDNNIVFSVPTDQCIDN
0.06: [18] | [35] | [41]
0.14: [25] | [49]
0.09: [4] | [14] | [30] | [33]
0.02: [1] | [7] | [24] | [37] | [38] | [48] | [51]
0.17: [39]
0.13: [3] | [20]
0.46: [34]
0.11: [50]
0.05: [8] | [12] | [27] | [29] | [31] | [42] | [45]
0.12: [2]
0.15: [28]
0.42: [19]
0.16: [26]
0.08: [10] | [40]
0.04: [6] | [11] | [16] | [17] | [22] | [32] | [44]
0.1: [9]
0.03: all other assays above

B2: engineered M44-L binder (SEQ ID NO: 21) (designed binder, not shown: small tags and cut ends; large carriers)
chain: QVSVQPNFQQDKFLGRWFYAGHASNSSWYREKVAALSMAKLVVAPATDGGLNATETFLRKNQCETITSLLQPAGSLGSYSSRSPHGGSTWSTSVVETDYDQYALLYLQGSKGPGEDFRGAILASRTQTPRAELKEKFTAFSKAQGFTEDTIVFLPQTDKCMTEQ
0.06: [3]
0.22: [34]
0.08: [19]
0.19: [49]
0.05: [9]
0.04: [25]
0.07: [10] | [26] | [50]
0.03: [30] | [33] | [40] | [41]
0.02: [2] | [6] | [14] | [16] | [17] | [18] | [20] | [23] | [32] | [39] | [42] | [44] | [45]
0.01: all other assays above
